Assay results from PMC6192581 (2018).
Where two headings read alike, the source gives them in different places.

Legend:
[1] = target: T1, LDL (apolipoprotein B-100) (Homo sapiens, UniProt P04114)
[2] = target: T1, LDL (apolipoprotein B-100); remark: listed apart in the source

B1: LDL receptor 1-789 (protein)
chain: not shown
Kd [1]: 0.58 nM
Kd [2]: 7.01 nM
